# According to paper doi:10.1101/2024.04.03.587999 (bioRxiv, 2024):
# T1: Outer membrane protein A of Acinetobacter baumannii (recombinant AbOmpA) (Acinetobacter baumannii, UniProt Q6RYW5 20-356)
# T1 sequence (looked up): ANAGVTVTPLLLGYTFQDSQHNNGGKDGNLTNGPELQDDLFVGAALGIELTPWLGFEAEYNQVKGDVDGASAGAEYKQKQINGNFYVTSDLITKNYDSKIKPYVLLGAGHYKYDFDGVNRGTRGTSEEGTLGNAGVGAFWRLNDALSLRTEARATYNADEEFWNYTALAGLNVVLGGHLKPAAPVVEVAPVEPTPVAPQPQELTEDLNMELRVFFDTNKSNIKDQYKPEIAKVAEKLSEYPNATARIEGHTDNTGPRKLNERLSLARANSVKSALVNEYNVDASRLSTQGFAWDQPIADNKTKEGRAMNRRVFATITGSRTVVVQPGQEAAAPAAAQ
# Biological target: T1, Outer membrane protein A of …
# Test: SPR
binder,measurement,value
QMGFMTSPKHSV [P92],Kd,7.84 nM
